Experimental data published in paper PMC11555092.

Molecular target: HIV-1 CA hexamer (CA A14C/E45C/W184A/M185A mutant) (HIV-1)
Assay: SEC; Superdex 10/300 GL increase column in 50 mM Tris pH 8; elution at 12.5 mL

HIV-1 CA hexamer (CA A14C/E45C/W184A/M185A mutant) (complex)
stoichiometry N: 6
